Data as given in paper PMC12682024.

Target: dopamine 2 receptor (D2R) with SmBiT tag (UniProt P14416)
Test: split reporter (BiFC, NanoBiT); NanoBiT in cells: SmBiT on D2R, LgBiT on Gβ; stimulation with dopamine; Gαo-free control = 0% interaction, WT Gαo = 100% interaction

Chain of UniProt P14416 (P14416 whole entry): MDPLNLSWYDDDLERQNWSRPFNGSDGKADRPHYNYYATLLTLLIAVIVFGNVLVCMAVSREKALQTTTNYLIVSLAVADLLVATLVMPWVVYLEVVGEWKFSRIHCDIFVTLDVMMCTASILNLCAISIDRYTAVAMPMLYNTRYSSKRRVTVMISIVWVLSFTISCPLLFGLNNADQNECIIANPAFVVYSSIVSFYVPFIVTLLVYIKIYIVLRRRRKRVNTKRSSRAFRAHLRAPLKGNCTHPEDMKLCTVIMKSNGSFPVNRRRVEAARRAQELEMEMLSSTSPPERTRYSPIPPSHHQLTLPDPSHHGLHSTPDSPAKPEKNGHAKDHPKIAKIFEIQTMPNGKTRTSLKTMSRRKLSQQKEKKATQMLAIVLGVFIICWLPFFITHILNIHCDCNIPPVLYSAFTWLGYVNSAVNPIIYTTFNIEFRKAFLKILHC

fold change of receptor-Gβγ interaction against WT Gαo: 4 fold
Sequence: G protein heterotrimer of N76K Gαo with LgBiT-tagged Gβ and Gγ (from UniProt P09471 1-354; P62873 1-340; P59768 1-71) (complex)
